Test system: human pancreatic cancer MiaPaCa-2 xenograft
Test: Antitumour efficacy in human pancreatic cancer MiaPaCa-2 xenograft model
Format: in vivo, CD-1 athymic nude mice
Conditions: 0.04 mg/kg murine IL-17E i.p. every third day
Description: The ability of murine interleukin 17E to inhibit human pancreatic cancer growth was examined as follows. Human pancreatic cancer MiaPaCa-2 cells (10^6 cells in 100 μl PBS) were subcutaneously implanted into the right flank of CD-1 athymic nude mice. Murine IL-17E was obtained from R&D Systems, Inc., and is present in the preparation as a disulphide linked homodimer. The predominant form of IL-17E in this preparation is the form starting at Val 17 of the murine sequence provided as GenBank Accession No. NP 542767. When tumours reached a volume of 50-100 mm^3, mice were randomly separated into two groups of 8 animals and treated as follows:
Group I: […] of PBS intraperitoneally (i.p.) per mouse every day until the endpoint of the experiment; and
Group II: 0.04 mg/kg of murine IL-17E intraperitoneally (i.p.) every third day until the endpoint of the experiment.
The size of the tumours was measured by caliper measurements throughout the experiment. Tumour weight was determined from tumour tissue surgically excised from the animal on the last day of the experiment. […]
25 μg of murine or human IL-17E were reconstituted with 200 μl PBS. […] Samples were separated by electrophoresis on SDS-PAGE gels and analyzed by either Western blotting or silver staining to show a reduction in IL-17E levels in immunodepleted samples. […]

B1: murine IL-17E: Murine IL-17E from R&D Systems; predominant form starting at Val 17 of GenBank NP 542767 (protein)
chain: VSLRIQEGCSHLPSCCPSKEQEPPEEWLKWSSASVSPPEPLSHTHHAESCRASKDGPLNSRAISPWSYELDRDLNRVPQDLYHARCLCPHCVSLQTGSHMDPLGNSVPLYHNQTVFYRRPCHGEEGTHRRYCLERRLYRVSLACVCVRPRVMA
  tumour growth (tumour volume and weight) as compared to PBS: significantly inhibit tumour growth

Reference: patent US8287851B2, “Use of interleukin 17E for the treatment of cancer” (Lorus Therapeutics Inc., priority 2005, dated 2012)
